Measurements: article PMC4517176

Legend:
[1] = molecular target: nPTEN-GFP (expressed in HEK293) (human) (UniProt P60484); assay: co-IP; PTEN-GFP constructs from HEK293 lysates held on anti-GFP beads (two hours), then 400 ul whole-cell lysate of HEK293 expressing HA-NEDD4-1 added for three hours; three washes; blots with anti-GFP and anti-HA; band intensity quantified (n = 3)
[2] = molecular target: ePTEN-GFP (expressed in HEK293) (human) (UniProt P60484); assay: as above

increase of co-precipitated NEDD4-1 against GFP alone and wild-type PTEN-GFP [1]: 2.5 | increase of co-precipitated NEDD4-1 against GFP alone and wild-type PTEN-GFP [2]: 2.5
Substance: HA-NEDD4-1 (from UniProt P46934 1-1319) (enzyme)
